The record followed here is PMC11609597, “Characterization of two bacterial tyrosinases from the halophilic bacterium Hahella sp. CCB MM4 relevant for phenolic compounds oxidation in wetlands” (FEBS Open Bio, 2024).

One series deals with T1, cleaved-HcTyr1 (Hahella sp. CCB-MM4, UniProt A0A261GRE4).
T1 construct: gene BTA51_09820; TYR domain after self-cleavage of the C-terminal LID domain during storage (over 2 months, 4 °C); used without further purification; expressed in E. coli BL21(DE3) with C-terminal His tag; Cu(II) added 2:1
The experiment in a line: MBTH o-quinone trapping, absorbance at […] nm, Michaelis-Menten fit. The following applies: 50 mM potassium phosphate pH 7.0, 25 °C, 5 mM MBTH, 2% N,N'-dimethylformamide, Cu(II) 2:1; LID self-cleaved form; diphenolase. Format: biochemical.

Substrate in series [1]: N[C@@H](Cc1ccc(O)c(O)c1)C(=O)O
The experiment in a line: purified protein. Format: biochemical, Hahella sp. CCB-MM4. The following applies: 5 mM MBTH, 2% N,N'-dimethylformamide.

Substrate in series [2]: N[C@@H](Cc1ccc(O)cc1)C(=O)O
The series can be described thus: purified protein. Format: biochemical, Hahella sp. CCB-MM4. The following applies: 5 mM MBTH, 2% N,N'-dimethylformamide.

Where [3] appears, read: 50 mM potassium phosphate pH 7.0, 25 °C, Cu(II) 2:1, latent form, diphenolase.
[4] abbreviates: 50 mM potassium phosphate pH 7.0, 25 °C, Cu(II) 2:1, latent form, monophenolase.
[5] abbreviates: 50 mM sodium citrate pH 5.5, 25 °C, Cu(II) 2:1, diphenolase.
The mark [6] stands for this setting: 50 mM sodium citrate pH 5.5, 25 °C, Cu(II) 2:1, monophenolase.

For `N[C@@H](Cc1ccc(O)c(O)c1)C(=O)O` [L-DOPA], the Km – broadly, the concentration of substrate that gives half-maximal velocity – at cleaved-HcTyr1 was found to be 347 ± 7 µM.

B1: HcTyr1 (latent-HcTyr1) (Hahella sp. CCB-MM4) (protein)
chain: MKTRQNVYELKDDTLSWYSRAVEEMKSRDINDPTSWWYQGAIHGYATYPSALTYWHDATGYPPSQQTVNSGFWNRCQHGTWYFLPWHRMYLFYFEEIVAKAIRDMGGPADWTLPYWNYCEAYNTSASPSNQQQALQIPPEFGSSQGPNADFASLWIKNRRNYVLNKNNVNPWPAMNEAEFTNSGGDISFGGGVTGFAHSGGQTGQLESLPHNVVHTDINGAMGNPDTAALDPIFWLHHANIDRLWQVWLAQAGRSNPVVNAWKDFRFKFHDANGQPVEIAVKDVETTQLLGYVYTPAFPLSSTTPARRSVPAMDVVGATSASFSVGDHMAPLDLTMVPQPARGARLLAARGGDEKRTILRISNVKGKGATSPIDLFITNRDNEEGNEENFVGCIGLFGLENASTPSVESDGSGLNFAIDISDTINKLRQRDDWDEDNIRVQLIPQSKQDSDVEINVGRVSLHSEID
notes: full length 466 aa with LID domain (latent), C-terminal His tag (pET22b), E. coli BL21(DE3), about 52 kDa, monomer; Cu(II) added 2:1
Regarding B1, the figures for the Km in “purified protein [1]” (setting [3]) and in the series “purified protein [2]” (setting [4]) were 370 ± 5 µM and 187 ± 35 µM, respectively. Moreover, the turnover number (kcat) (usually the maximal rate divided by the concentration of active sites) came to 1.00 ± 0.0 s⁻¹ in the series “purified protein [1]” (setting [3]) and 0.71 ± 0.03 s⁻¹ in the series “purified protein [2]” (setting [4]).

B2: HcTyr2 (Hahella sp. CCB-MM4) (protein)
chain: MGDSSELNVRRSVRDLQAEYDRGNRKPLEDLIRAWKGIQELPPDDKRSFFILGGYHGEPFDYRNAVDALPPDDIYTYWGGWCNHGNVLFPTWHRIYILKLEEALQSIVPGVTLPFWDETSEETVKKGIPDVLTREYFELDGENIKNPLYSYTLPLSLSDNVPGDNKAYEKPAGYETVRYPLSGLVGTPEARAATAKHNAKYPNPIENTQLLNKNIIAWLHGSGKDEEGPTTTDPNPKGRGVKWMYEKCLSAPNYTVFSNTTSAGQWNLDHPAKSVVALEQPHNDVHLAVGGFDIPGQGESGQVADANGDMGENNTAALDPIFFFHHCNVDRMFWLWQKQNGFINKLEVITGYYGTNSSDSQGPTPGIPPGTPLDLNTPLNPFIKDEFGNPFTSMDCINIEEQLGYTYGPGSLDEVPKPEPITGGSTKKLTVRGINRGLFDGSFVIRAYASVPDAQGQLTEYYLGDHAVLSRRNVVKCANCLTHLEVIAHFPLDTLSADLVDKAEYWITIQHRGHSKRMKVDKDTGQSEKALLAQRAELPEKLKYSISVTD
notes: full length 550 aa with LID domain attached, C-terminal His tag (pET22b), E. coli BL21(DE3), about 61 kDa; Cu(II) added 2:1
On to B2, for which, in “purified protein [1]” (setting [5]), the Km is 196 ± 6 µM and the kcat is 9.94 ± 0.0 s⁻¹. In addition, in the series “purified protein [2]” (setting [6]), the Km is 160 ± 5 µM and the kcat was found to be 6.12 s⁻¹.
